# Measured values taken from US20060177826A1 (SERUM BIOMEDICAL INSTITUTE, published 2006).
# Molecular target: T1, human beta-FSH subunit (SDK-X1X2 expression product) (human, UniProt P01225 19-129)
# T1 construct: Expressed from pTPKBFSH in co-transfected COS-7L and CHO-S cells and tested as secreted protein in the culture supernatant; also called β subunit of human FSH
# Assay: FSH-IRMA sandwich immunoradiometric assay (one mAb for the alpha subunit, one for the beta subunit) on supernatant of co-transfected cells; detects only the complete alpha and beta complex
# Description: Following transfection, the cells were cultured in a selective medium containing 1000 μg/ml Geneticine and 400 μg/ml Blasticidin for 7 days. Geneticine-Blasticidine-resistant cells were transferred in a new culture medium containing Geneticine (200 μg/ml) and Blasticidin (200 μg/mL), and cultured to a cell density of 10⁶ cells/ml. The supernatant of this culture was than tested for the presence of the multisubunit (alpha subunit and beta subunit non-covalently associated) FSH complex.
# The presence of the alpha and beta FSH complex was detected using the BIOSOURCE FSH-IRMA Kit (Biosource Europe S.A., Cat # KIP0841-KIP0844), an immunoradiometric assay kit for the quantitation of Follicle Stimulating Hormone (FSH). This FSH-IRMA assay is based on the use of two monoclonal antibodies, one specific for the alpha subunit of FSH and one for the beta subunit of FSH. Thus this assay only detects the complete alpha and beta FSH complex. The supernatant of pLenti6/V5-glycalA and the pTPKBFSH co-transfected cells was tested using the FSH-IRMA kit according to manufacturer's instructions.
# T1 sequence (P01225 19-129 limits assumed): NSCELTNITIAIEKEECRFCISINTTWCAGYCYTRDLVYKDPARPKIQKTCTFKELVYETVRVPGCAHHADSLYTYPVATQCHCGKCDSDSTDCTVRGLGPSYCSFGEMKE
binder,measurement,value
"human alpha-FSH subunit (glycalA expression product) (ligand, Expressed from pLenti6/V5-glycalA in co-transfected COS-7L and CHO-S cells and tested as secreted protein in the culture supernatant; also called alpha subunit of FSH) not shown",binding result,binds
